Laboratory results published in FireProtDB (doi:10.1074/jbc.m110728200).

Conditions: Homo sapiens; pH 2.7; Thermal; DSC; Gly-HCl 0.05 M; whole UniProt chain shown

B1: Lysozyme C wild type, P61626 (protein)
chain: MKALIVLGLVLLSVTVQGKVFERCELARTLKRLGMDGYRGISLANWMCLAKWESGYNTRATNYNAGDRSTDYGIFQINSRYWCNDGKTPGAVNACHLSCSALLQDNIADAVACAKRVVRDPQGIRAWVAWRNRCQNRDVRQYVQGCGV
- Tm: 64.9 °C
- heat capacity change of unfolding: 1.58 kcal/mol/K
- unfolding enthalpy (calorimetric): 114 kcal/mol
